The labels stand for the following.
B1: ETA, wild type, as used in the size exclusion chromatography analysis with Fab301, P25101 E234A (protein)
chain: DNPERYSTNLSNHVDDFTTFRGTELSFLVTTHQPTNLVLPSNGSMHNYCPQQTKITSAFKYINTVISCTIFIVGMVGNATLLRIIYQNKCMRNGPNALIASLALGDLIYVVIDLPINVFKLLAGRWPFDHNDFGVFLCKLFPFLQKSSVGITVLNLCALSVDRYRAVASWSRVQGIGIPLVTAIEIVSIWILSFILAIPEAIGFVMVPFEYRGAQHKTCMLNATSKFMEFYQDVKDWWLFGFYFCMPLVCTAIFYTLMTCEMLNRRNGSLRIALSEHLKQRREVAKTVFCLVVIFALCWFPLHLSRILKKTVYNEMDKNRCELLSFLLLMDYIGINLATMNSCINPIALYFVSKKFKNCFQSCLCCCCYQSKSLMTSVPMNGTSIQWKNHDQNNHNTDRSSHKDSMN
B2: ETA, wild type, as used in the size exclusion chromatography analysis with Fab301, P25101 Q235A (protein)
chain: DNPERYSTNLSNHVDDFTTFRGTELSFLVTTHQPTNLVLPSNGSMHNYCPQQTKITSAFKYINTVISCTIFIVGMVGNATLLRIIYQNKCMRNGPNALIASLALGDLIYVVIDLPINVFKLLAGRWPFDHNDFGVFLCKLFPFLQKSSVGITVLNLCALSVDRYRAVASWSRVQGIGIPLVTAIEIVSIWILSFILAIPEAIGFVMVPFEYRGEAHKTCMLNATSKFMEFYQDVKDWWLFGFYFCMPLVCTAIFYTLMTCEMLNRRNGSLRIALSEHLKQRREVAKTVFCLVVIFALCWFPLHLSRILKKTVYNEMDKNRCELLSFLLLMDYIGINLATMNSCINPIALYFVSKKFKNCFQSCLCCCCYQSKSLMTSVPMNGTSIQWKNHDQNNHNTDRSSHKDSMN
B3: ETA, wild type, as used in the size exclusion chromatography analysis with Fab301, P25101 R232A (protein)
chain: DNPERYSTNLSNHVDDFTTFRGTELSFLVTTHQPTNLVLPSNGSMHNYCPQQTKITSAFKYINTVISCTIFIVGMVGNATLLRIIYQNKCMRNGPNALIASLALGDLIYVVIDLPINVFKLLAGRWPFDHNDFGVFLCKLFPFLQKSSVGITVLNLCALSVDRYRAVASWSRVQGIGIPLVTAIEIVSIWILSFILAIPEAIGFVMVPFEYAGEQHKTCMLNATSKFMEFYQDVKDWWLFGFYFCMPLVCTAIFYTLMTCEMLNRRNGSLRIALSEHLKQRREVAKTVFCLVVIFALCWFPLHLSRILKKTVYNEMDKNRCELLSFLLLMDYIGINLATMNSCINPIALYFVSKKFKNCFQSCLCCCCYQSKSLMTSVPMNGTSIQWKNHDQNNHNTDRSSHKDSMN
B4: ETA, wild type, as used in the size exclusion chromatography analysis with Fab301, P25101 G233A (protein)
chain: DNPERYSTNLSNHVDDFTTFRGTELSFLVTTHQPTNLVLPSNGSMHNYCPQQTKITSAFKYINTVISCTIFIVGMVGNATLLRIIYQNKCMRNGPNALIASLALGDLIYVVIDLPINVFKLLAGRWPFDHNDFGVFLCKLFPFLQKSSVGITVLNLCALSVDRYRAVASWSRVQGIGIPLVTAIEIVSIWILSFILAIPEAIGFVMVPFEYRAEQHKTCMLNATSKFMEFYQDVKDWWLFGFYFCMPLVCTAIFYTLMTCEMLNRRNGSLRIALSEHLKQRREVAKTVFCLVVIFALCWFPLHLSRILKKTVYNEMDKNRCELLSFLLLMDYIGINLATMNSCINPIALYFVSKKFKNCFQSCLCCCCYQSKSLMTSVPMNGTSIQWKNHDQNNHNTDRSSHKDSMN
B5: ETA, wild type, as used in the size exclusion chromatography analysis with Fab301, P25101 F229A (protein)
chain: DNPERYSTNLSNHVDDFTTFRGTELSFLVTTHQPTNLVLPSNGSMHNYCPQQTKITSAFKYINTVISCTIFIVGMVGNATLLRIIYQNKCMRNGPNALIASLALGDLIYVVIDLPINVFKLLAGRWPFDHNDFGVFLCKLFPFLQKSSVGITVLNLCALSVDRYRAVASWSRVQGIGIPLVTAIEIVSIWILSFILAIPEAIGFVMVPAEYRGEQHKTCMLNATSKFMEFYQDVKDWWLFGFYFCMPLVCTAIFYTLMTCEMLNRRNGSLRIALSEHLKQRREVAKTVFCLVVIFALCWFPLHLSRILKKTVYNEMDKNRCELLSFLLLMDYIGINLATMNSCINPIALYFVSKKFKNCFQSCLCCCCYQSKSLMTSVPMNGTSIQWKNHDQNNHNTDRSSHKDSMN
B6: ETA, wild type, as used in the size exclusion chromatography analysis with Fab301, P25101 E230A (protein)
chain: DNPERYSTNLSNHVDDFTTFRGTELSFLVTTHQPTNLVLPSNGSMHNYCPQQTKITSAFKYINTVISCTIFIVGMVGNATLLRIIYQNKCMRNGPNALIASLALGDLIYVVIDLPINVFKLLAGRWPFDHNDFGVFLCKLFPFLQKSSVGITVLNLCALSVDRYRAVASWSRVQGIGIPLVTAIEIVSIWILSFILAIPEAIGFVMVPFAYRGEQHKTCMLNATSKFMEFYQDVKDWWLFGFYFCMPLVCTAIFYTLMTCEMLNRRNGSLRIALSEHLKQRREVAKTVFCLVVIFALCWFPLHLSRILKKTVYNEMDKNRCELLSFLLLMDYIGINLATMNSCINPIALYFVSKKFKNCFQSCLCCCCYQSKSLMTSVPMNGTSIQWKNHDQNNHNTDRSSHKDSMN
B7: ETA, wild type, as used in the size exclusion chromatography analysis with Fab301, P25101 Y231A (protein)
chain: DNPERYSTNLSNHVDDFTTFRGTELSFLVTTHQPTNLVLPSNGSMHNYCPQQTKITSAFKYINTVISCTIFIVGMVGNATLLRIIYQNKCMRNGPNALIASLALGDLIYVVIDLPINVFKLLAGRWPFDHNDFGVFLCKLFPFLQKSSVGITVLNLCALSVDRYRAVASWSRVQGIGIPLVTAIEIVSIWILSFILAIPEAIGFVMVPFEARGEQHKTCMLNATSKFMEFYQDVKDWWLFGFYFCMPLVCTAIFYTLMTCEMLNRRNGSLRIALSEHLKQRREVAKTVFCLVVIFALCWFPLHLSRILKKTVYNEMDKNRCELLSFLLLMDYIGINLATMNSCINPIALYFVSKKFKNCFQSCLCCCCYQSKSLMTSVPMNGTSIQWKNHDQNNHNTDRSSHKDSMN

This note sets out measurements from PMC11286772, “Structural basis of antagonist selectivity in endothelin receptors” (Cell Discovery, 2024).

The target in this assay is Fab301, Fab fragment of the anti-ETA monoclonal antibody Getagozumab. The experiment in a line: size exclusion chromatography. To be noted: chain shown with the change;; parent: est. 0 min; read off a plot. (In general: Size exclusion chromatography separates by hydrodynamic size, large species first.)
Chain of Fab301, Fab fragment of the anti-ETA monoclonal antibody Getagozumab (chain, as listed by the source, chain 1 of 2): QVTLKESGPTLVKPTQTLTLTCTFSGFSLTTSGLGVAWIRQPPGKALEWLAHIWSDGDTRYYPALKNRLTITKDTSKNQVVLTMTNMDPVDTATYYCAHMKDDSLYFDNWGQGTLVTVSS
Chain of Fab301, Fab fragment of the anti-ETA monoclonal antibody Getagozumab (chain, as listed by the source, chain 2 of 2): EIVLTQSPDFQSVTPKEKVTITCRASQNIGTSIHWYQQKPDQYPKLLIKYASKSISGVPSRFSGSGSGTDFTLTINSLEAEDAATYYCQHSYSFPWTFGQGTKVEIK
Take B1: the other: Δt (SEC retention time of mutant–Fab301 complex minus WT–Fab301 complex) amounted to 0.019 min.

As for B2, the other: Δt (SEC retention time of mutant–Fab301 complex minus WT–Fab301 complex) is 0.023 min.

For the molecule B3, the other: Δt (SEC retention time of mutant–Fab301 complex minus WT–Fab301 complex) came out at 0.054 min.

Turning to B4, the other: Δt (SEC retention time of mutant–Fab301 complex minus WT–Fab301 complex) came out at 0.056 min.

Take B5: the other: Δt (SEC retention time of mutant–Fab301 complex minus WT–Fab301 complex) is -0.004 min.

On to B6, for which the other: Δt (SEC retention time of mutant–Fab301 complex minus WT–Fab301 complex) came out at 0.026 min.

Take B7: the other: Δt (SEC retention time of mutant–Fab301 complex minus WT–Fab301 complex) was determined as 0.039 min.
